From publication PMC9482650, “Quantitative fragmentomics allow affinity mapping of interactomes” (Nature Communications, 2022)

Experiments:
Experiment in all cases: holdup assay
Parameters in all cases: key: below the threshold = too weak to quantify, mostly under pKd 3.1 to 4
[1] = molecular target: CASK, O14936
[2] = molecular target: DLG5_1, Q8TDM6
[3] = molecular target: T1, PTPN13_1, Q12923
T1 sequence (Q12923 1088-1188, limits assumed, looked up): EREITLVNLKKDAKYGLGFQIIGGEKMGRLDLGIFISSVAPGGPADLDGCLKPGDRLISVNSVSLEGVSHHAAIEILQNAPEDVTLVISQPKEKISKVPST

[4] = molecular target: DLG1_1, Q12959
[5] = molecular target: T2, SNTG2, Q9NY99
T2 sequence (Q9NY99 68-166, limits assumed, looked up): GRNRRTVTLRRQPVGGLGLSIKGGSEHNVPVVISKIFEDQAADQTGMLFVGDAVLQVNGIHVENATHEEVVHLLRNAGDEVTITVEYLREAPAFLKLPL

[6] = molecular target: T3, MPDZ_12, O75970
T3 sequence (O75970 1857-1958, limits assumed, looked up): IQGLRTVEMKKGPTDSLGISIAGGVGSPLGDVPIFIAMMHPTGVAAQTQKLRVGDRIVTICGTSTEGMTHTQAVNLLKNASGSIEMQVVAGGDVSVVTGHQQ

[7] = molecular target: T4, SNTB1, Q13884
T4 sequence (Q13884 107-205, limits assumed, looked up): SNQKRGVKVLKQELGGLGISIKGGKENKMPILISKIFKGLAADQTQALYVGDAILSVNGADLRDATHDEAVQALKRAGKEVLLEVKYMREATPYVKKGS

[8] = molecular target: T5, ARHGEF11, O15085
T5 sequence (O15085 42-136, limits assumed, looked up): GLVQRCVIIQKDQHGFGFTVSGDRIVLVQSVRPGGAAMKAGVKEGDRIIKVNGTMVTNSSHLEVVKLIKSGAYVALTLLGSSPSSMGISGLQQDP

[9] = molecular target: T6, GRIP1_2, Q9Y3R0
T6 sequence (Q9Y3R0 145-248, limits assumed, looked up): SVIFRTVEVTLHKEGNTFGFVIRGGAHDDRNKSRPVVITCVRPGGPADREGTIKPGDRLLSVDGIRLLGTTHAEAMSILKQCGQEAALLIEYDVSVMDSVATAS

[10] = molecular target: Inadl_4, Q8NI35
Inadl_4, Q8NI35, sequence (Q8NI35 547-651): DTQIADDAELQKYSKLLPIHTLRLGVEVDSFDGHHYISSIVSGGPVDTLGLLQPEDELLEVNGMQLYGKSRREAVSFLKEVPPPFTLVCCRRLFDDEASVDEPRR

[11] = molecular target: ARHGEF12, Q9NZN5-2
ARHGEF12, Q9NZN5-2, sequence (Q9NZN5 other isoform, or with tags, fused parts or gaps): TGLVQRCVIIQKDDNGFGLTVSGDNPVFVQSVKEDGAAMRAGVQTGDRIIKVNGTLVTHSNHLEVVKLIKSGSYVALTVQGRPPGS

[12] = molecular target: DLG4_2, P78352
DLG4_2, P78352, sequence (P78352 155-259): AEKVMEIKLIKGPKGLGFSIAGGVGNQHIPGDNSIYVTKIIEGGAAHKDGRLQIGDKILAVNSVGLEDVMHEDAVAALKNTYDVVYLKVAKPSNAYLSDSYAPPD

[13] = molecular target: SCRIB_3, Q14160
SCRIB_3, Q14160, sequence (Q14160 999-1103): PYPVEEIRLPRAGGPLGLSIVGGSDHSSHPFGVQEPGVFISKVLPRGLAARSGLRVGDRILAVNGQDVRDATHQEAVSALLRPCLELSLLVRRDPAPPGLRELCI

[14] = molecular target: Inadl_10, Q8NI35
Inadl_10, Q8NI35, sequence (Q8NI35 1673-1763): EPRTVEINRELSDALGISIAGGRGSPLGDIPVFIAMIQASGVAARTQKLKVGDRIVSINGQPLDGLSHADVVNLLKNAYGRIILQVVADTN

[15] = molecular target: T7, LRRC7, Q96NW7
T7 sequence (Q96NW7 1440-1537, limits assumed, looked up): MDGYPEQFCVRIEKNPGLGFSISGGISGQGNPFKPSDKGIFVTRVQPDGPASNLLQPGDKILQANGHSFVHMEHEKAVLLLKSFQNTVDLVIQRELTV

[16] = molecular target: DLG2_2, Q15700
DLG2_2, Q15700, sequence (Q15700 189-283): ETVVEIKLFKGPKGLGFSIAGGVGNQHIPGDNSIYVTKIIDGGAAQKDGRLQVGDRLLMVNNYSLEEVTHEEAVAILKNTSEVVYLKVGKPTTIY

[17] = molecular target: MAGI2_3, Q86UL8
MAGI2_3, Q86UL8, sequence (Q86UL8 600-682): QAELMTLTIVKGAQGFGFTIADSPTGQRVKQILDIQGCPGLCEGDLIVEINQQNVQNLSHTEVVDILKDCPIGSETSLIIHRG

[18] = molecular target: PARD3_3, Q8TEW0
PARD3_3, Q8TEW0, sequence (Q8TEW0 582-685): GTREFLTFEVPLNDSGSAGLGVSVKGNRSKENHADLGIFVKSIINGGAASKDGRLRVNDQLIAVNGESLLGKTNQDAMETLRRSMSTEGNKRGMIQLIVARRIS

[19] = molecular target: NHERF4_2, Q86UT5
NHERF4_2, Q86UT5, sequence (Q86UT5 220-308): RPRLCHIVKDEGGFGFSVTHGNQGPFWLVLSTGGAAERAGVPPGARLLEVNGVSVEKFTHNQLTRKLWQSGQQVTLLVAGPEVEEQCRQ

[20] = molecular target: T8, GRIP1_3, Q9Y3R0
T8 sequence (Q9Y3R0 247-346, limits assumed, looked up): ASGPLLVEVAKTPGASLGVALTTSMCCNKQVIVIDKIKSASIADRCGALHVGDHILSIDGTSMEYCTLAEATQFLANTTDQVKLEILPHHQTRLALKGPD

[21] = molecular target: T9, RADIL, Q96JH8
T9 sequence (Q96JH8 971-1071, limits assumed, looked up): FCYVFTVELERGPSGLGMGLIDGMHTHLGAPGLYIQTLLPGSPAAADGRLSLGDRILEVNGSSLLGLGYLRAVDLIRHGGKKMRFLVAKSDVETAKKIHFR

[22] = molecular target: T10, APBA1_2, Q02410
T10 sequence (Q02410 742-832, limits assumed, looked up): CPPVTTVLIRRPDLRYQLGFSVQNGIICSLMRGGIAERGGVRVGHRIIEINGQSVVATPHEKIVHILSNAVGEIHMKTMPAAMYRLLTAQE

[23] = molecular target: MAGI2_5, Q86UL8
MAGI2_5, Q86UL8, sequence (Q86UL8 915-1017): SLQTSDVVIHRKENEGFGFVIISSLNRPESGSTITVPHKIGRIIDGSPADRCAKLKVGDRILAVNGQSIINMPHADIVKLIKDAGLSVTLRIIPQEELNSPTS

[24] = molecular target: T11, PDZRN3_1, Q9UPQ7
T11 sequence (Q9UPQ7 244-349, limits assumed, looked up): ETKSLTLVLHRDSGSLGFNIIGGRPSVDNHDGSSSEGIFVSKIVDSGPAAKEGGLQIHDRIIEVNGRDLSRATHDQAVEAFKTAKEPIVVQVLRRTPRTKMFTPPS

[25] = molecular target: T12, RHPN1, Q8TCX5
T12 sequence (Q8TCX5 508-602, limits assumed, looked up): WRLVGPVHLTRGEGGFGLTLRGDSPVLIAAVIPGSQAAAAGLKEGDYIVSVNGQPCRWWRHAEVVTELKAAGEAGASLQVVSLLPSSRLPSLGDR

[26] = molecular target: SCRIB_1, Q14160
SCRIB_1, Q14160, sequence (Q14160 718-814): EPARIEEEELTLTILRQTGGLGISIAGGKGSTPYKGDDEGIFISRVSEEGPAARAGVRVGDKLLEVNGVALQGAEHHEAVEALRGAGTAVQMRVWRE

[27] = plain residues with an end cap or a label only (N-terminal biotin on a linker: ado-ado)
[28] = plain residues with an end cap or a label only (N-terminal biotin on a linker: (peg)3)

DLG5_1, Q8TDM6, sequence (Q8TDM6 617-713): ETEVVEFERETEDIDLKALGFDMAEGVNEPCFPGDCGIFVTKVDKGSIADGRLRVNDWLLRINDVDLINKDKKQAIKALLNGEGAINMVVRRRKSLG
CASK, O14936, sequence (O14936 487-570): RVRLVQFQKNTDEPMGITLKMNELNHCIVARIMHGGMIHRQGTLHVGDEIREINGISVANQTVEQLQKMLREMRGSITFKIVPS

B1: SLC34A1, Q06495;Q06495-1 (peptide)
chain: LPAHHNATRL
pKd [1, 27]: below the threshold | pKd [2, 27]: below the threshold | pKd [3, 27]: below the threshold | pKd [4, 27]: below the threshold | pKd [5, 27]: 4.15 | pKd [6, 27]: below the threshold | pKd [7, 27]: below the threshold | pKd [8, 27]: 4.11 | pKd [9, 27]: below the threshold | pKd [10, 27]: below the threshold | pKd [11, 27]: 4.44 | pKd [12, 27]: below the threshold | pKd [13, 27]: 4.02 | pKd [14, 27]: below the threshold | pKd [15, 27]: below the threshold | pKd [16, 27]: below the threshold | pKd [17, 27]: below the threshold | pKd [18, 27]: below the threshold | pKd [19, 27]: below the threshold | pKd [20, 27]: below the threshold | pKd [21, 27]: below the threshold | pKd [22, 27]: 4

B2: PDLIM4_iso2, P50479;P50479-1 (peptide)
chain: VYPNAKVELV
pKd [1, 27]: below the threshold | pKd [2, 27]: below the threshold | pKd [23, 27]: below the threshold | pKd [3, 27]: below the threshold | pKd [4, 27]: below the threshold | pKd [24, 27]: below the threshold | pKd [6, 27]: below the threshold | pKd [7, 27]: below the threshold | pKd [8, 27]: below the threshold | pKd [9, 27]: below the threshold | pKd [10, 27]: below the threshold | pKd [11, 27]: below the threshold | pKd [12, 27]: below the threshold | pKd [13, 27]: below the threshold | pKd [14, 27]: below the threshold | pKd [15, 27]: below the threshold | pKd [16, 27]: below the threshold | pKd [17, 27]: below the threshold | pKd [25, 27]: below the threshold | pKd [18, 27]: below the threshold | pKd [26, 27]: below the threshold | pKd [19, 27]: below the threshold | pKd [20, 27]: below the threshold | pKd [21, 27]: 5.24 | pKd [22, 27]: 3.91

B3: ATP2A2, P16615;P16615-3 (peptide)
chain: YLEPVLSSEL
pKd [1, 27]: below the threshold | pKd [2, 27]: below the threshold | pKd [23, 27]: 4.82 | pKd [3, 27]: below the threshold | pKd [4, 27]: below the threshold | pKd [5, 27]: below the threshold | pKd [7, 27]: below the threshold | pKd [8, 27]: 4.55 | pKd [9, 27]: below the threshold | pKd [10, 27]: below the threshold | pKd [11, 27]: 5.38 | pKd [12, 27]: below the threshold | pKd [13, 27]: 4.51 | pKd [14, 27]: below the threshold | pKd [15, 27]: below the threshold | pKd [16, 27]: below the threshold | pKd [17, 27]: below the threshold | pKd [25, 27]: 4.24 | pKd [18, 27]: below the threshold | pKd [26, 27]: 4.38 | pKd [19, 27]: below the threshold | pKd [20, 27]: below the threshold | pKd [21, 27]: below the threshold | pKd [22, 27]: below the threshold

B4: TRIM29, Q14134;Q14134-2 (peptide)
chain: KSGKQTMLVV
pKd [2, 27]: 3.93 | pKd [23, 27]: below the threshold | pKd [3, 27]: below the threshold | pKd [4, 27]: below the threshold | pKd [24, 27]: below the threshold | pKd [5, 27]: below the threshold | pKd [6, 27]: below the threshold | pKd [7, 27]: below the threshold | pKd [9, 27]: below the threshold | pKd [13, 27]: below the threshold | pKd [14, 27]: below the threshold | pKd [15, 27]: below the threshold | pKd [17, 27]: below the threshold | pKd [25, 27]: below the threshold | pKd [18, 27]: below the threshold | pKd [26, 27]: below the threshold | pKd [19, 27]: below the threshold | pKd [20, 27]: below the threshold | pKd [21, 27]: 4.46 | pKd [22, 27]: below the threshold

B5: SARS-CoV-E, P59637 (peptide)
chain: NLNSSEGVPDLLV
pKd [1, 28]: below the threshold | pKd [2, 28]: below the threshold | pKd [23, 28]: below the threshold | pKd [3, 28]: below the threshold | pKd [4, 28]: below the threshold | pKd [24, 28]: below the threshold | pKd [5, 28]: below the threshold | pKd [6, 28]: below the threshold | pKd [7, 28]: below the threshold | pKd [8, 28]: below the threshold | pKd [9, 28]: below the threshold | pKd [10, 28]: below the threshold | pKd [11, 28]: below the threshold | pKd [12, 28]: below the threshold | pKd [13, 28]: below the threshold | pKd [14, 28]: below the threshold | pKd [15, 28]: below the threshold | pKd [16, 28]: below the threshold | pKd [17, 28]: below the threshold | pKd [25, 28]: below the threshold | pKd [18, 28]: 4.27 | pKd [26, 28]: below the threshold | pKd [19, 28]: below the threshold | pKd [20, 28]: below the threshold | pKd [21, 28]: below the threshold | pKd [22, 28]: below the threshold
